Assay: soluble on expression in E. coli; label from the status in PepcDB or PDB records

Sequence | soluble on expression in E. coli
RPLFAREGGIYAVLVCMQEYKTSVLVQQAGLAALKMLAVASSSEIPTFVTGRDSIHSLFDAQMTREIFASIDSATRPGSESLLLTVPAAVILMLNTEGCSSAARNGLLLLNLLLCNHHTLGDQIITQELRDTLFRHSGIAPRTEPMPTTRTILMMLLNRYSEPPGSPERAALETPIIQGQDGSPELLIRSLVGGPSAELLLDLERVLCREGSPGGAVRPLLKRLQQETQPFLLLLRTLDAPGPNKTLLLSVLRVITRLLDFPEAMVLPWHEVLEPCLNCLSGPSSDSEIVQELTCFLHRLASMHKDYAVVLCCLGAKEILSKVLDKHSAQLLLGCELRDLVTECEKYAQLYSNLTSSILAGCIQMVLGQIEDHRRTHQPINIPFFDVFLRHLCQGSSVEVKEDKCWEKVEVSSNPHRASKLTDHNPKTYWESNGSTGSHYITLHMHRGVLVRQLTLLVASEDSSYMPARVVVFGGDSTSCIGTELNTVNVMPSASRVILLENLNRFWPIIQIRIKRCQQGGIDTRVRGVEVLGPKPTFWPLFREQLCRRTCLFYTIRAQAWSRDIAEDHRRLLQLCPRLNRVLRHEQNFADRFLPDDEAAQALGKTCWEALVSPLVQNITSPDAEGVSALGWLLDQYLEQRETSRNPLSRAASFASRVRRLCHLLVHVEPPPGPSPEPSTRPFSKNSKGRDRSPAPSPVLPSSSLRNITQCWLSVVQEQVSRFLAAAWRAPDFVPRYCKLYEHLQRAGSELFGPRAAFMLALRSGFSGALLQQSFLTAAHMSEQFARYIDQQIQGGLIGGAPGVEMLGQLQRHLEPIMVLSGLELATTFEHFYQHYMADRLLSFGSSWLEGAVLEQIGLCFPNRLPQLMLQSLSTSEELQRQFHLFQLQRLDKLFLEQEDEEEKRLEEEEEEEEEEEAEKELFIEDPSPAISILVLSPRCWPVSPLCYLYHPRKCLPTEFCDALDRFSSFYSQSQNHPVLDMGPHRRLQWTWLGRAELQFGKQILHVSTVQMWLLLKFNQTEEVSVETLLKDSDLSPELLLQALVPLTSGNGPLTLHEGQDFPHGGVLRLHEPGPQRSGEALWLIPPQAYLNVEKDEGRTLEQKRNLLSCLLVRILKAHGEKGLHIDQLVCLVLEAWQKGPNPPGTLGHTVAGGVACTSTDVLSCILHLLGQGYVKRRDDRPQILMYAAPEPMGPCRGQADVPFCGSQSETSKPSPEAVATLASLSCLQAAP | soluble
MGSDKIHHHHHHMSFKKSELLNVLDMAFKKEFGKGLSLISPQWGLIAMKISSSTKTNTYGWLGFFPKMREWVGERQIKKMQAQAMSIENKTFESTVSISRTDIEDDQAGLFAPVVQQAGQSAAELPDDLVFSLLAKGKSTLCYDGQNFFDTDHPVYENVDGTGSHKEQSNLTTGSASEHPTFYILDDTNAIKPFIWQERSAPEIETKFDPSRSDKVFMEDVYLWGVRARGNAGFGFWQLIHCVEETELTADAVMKVLAQMRMLKGDGGKLLNIRPSTILVPPALEFKARQLFEAEIINGSTNPLKGVLKVAVSAQIATA | not soluble
MGSDKIHHHHHHMNTRLKDTSGHSPIDPRILDEAAAWLMQLHASTVTDMERNAWEQWRLRSPQHRQAWERAEQLMNKMGGLPPALSMAALTHPGGNNRRAAIKKLALLMTALPASWAAWRVTPWEAWMAEYRTMVSEQREIELADGSQVRLNTATSIDVRFNAVQRLIVLHTGEILIQTAADNAVTPRPFQVLTAEGRLYALGTRFTVRQGEERSHVAVFDGAVAIHPKSGDSGVAQVLHAGNKTVFTAEAIEVSRPADDTDIAWTQGMLLADKMHLTDFTDELSRYRQGIVRCDPVLADLRISGAFPIRDTDRTLAMLQATYPVRIVYRTPYWVTLVPR | not soluble
MGSDKIHHHHHHMDAFYASVEQRDNPELCGKPLAVGHAEERGVVAAASYEARRYGVHSAMSSQKAKRLCPELIFVPGRMNVYKAVSRQIHDIFHTYTDIIEPLSLDEAFLDVTENKAGFSLAIDIAKDIKKRIRKELGLIASAGVSYNKFLAKIASDYRKPDGLCTIHPDQALDFIAHLPIESFWGVGPVTAQKMHALGIHNGTQLQACTLEMLTRQFGKAGNLYYDFARGIDLRPVEPIRIRKSVGCEHTLEKDISLHSSAIIELYHVVTELLERLKRTNFSGNTLTLKIKFHDFNQITRSITQDSELTSMDKILPLAKKLLKEIDYESHPIRLIGLSVSNPKEEIKKQWEQLSLEFKEWDD | not soluble
MRYDVVIIGGGLAGLTCGIRLAEQGKRCAIVSAGQNALHFSSGALDLLSHLPDGQPVSQPLDALDELARQAPHHPYSRMGAAAVAALLPQVEALLERSNISLLGNHQQNHWRMTPLGKFRACWLSPADGVTRGLADSHFGDNPLIAGIEGFLDFQSRIVAGTLQTQGIAARSDELKLPVLDRLRQNPSEFRAVNIARLLDRPENRSALVEELSLLANGNDAIIMPACLGLDSPEIVSELADALGKPVLLLPTLPPSVLGLRLHQALSQRFRQLGGMVMPGDRAVRASLSSQEIAVHSHHHRDIPLRAKHAVLASGSFFSNGLVTQFDRVTEPVFGLDVRFAEQREGWSQQDVFAPQPYMQFGAIVDEHLHPRIAGETVNNLYAIGAVLEGFDPIVQGCGAGVSLLSALHVAEQILKEGNPLEHHHHHH | soluble
SSWFRAAPENASPGDQDVFDEEADESLLAQREWQGHMRKRVQEGYRDGLDAGKALTLQRGFNQGYKEGADVIINYGLLRGTLSALLSWCHLHGNSSTLISKISNLLDTVDQCEECVLRRLKSVTSQPRVTDLLDAIEDMDLCHVVPSDQAKGDSNAEINTDSDSPNGMGCSHPEHCRPKEHAHLEKPSLSWILEQTSSLVKQLGVPADILQHLRQL | soluble
MGSDKIHHHHHHMRFLAYFGHLNIDVLISVDSIPREGSVNVKDLRPRFGGTAGNFAIVAQKFRIPFDLYSAVGMKTHREYLAMIESMGINTGHVEKFEDESGPICYIATDGKKQVSFMHQGAMEKWKPQLADEYEYVHFSTGPNYLDMAKSIRSKIIFDPSQEIHKYSKDELKKFHEISYMSIFNDHEYRVFREMTGLSSPKVTTIVTNGERGSSLFMDGKKYDFPAIPSSGDTVGAGDSFRAGLYLALYNRRSIEKGMIYGTIIAHHVIDDGIENFSLNMEDLERETENYRRMFTKRS | not soluble
MGSDKIHHHHHHMTNVIIEKISAKEVFKGAKIKVMITTMTNISIGYDIIEVNNPEEAIADVENVIAPELIGYPATDIDFIDSLICETSVNNPTVAMGISISVARAASNSLDIPLFKFLGGALTTELPIVASGILVDKDKNELIPIVMADSIEDIVNLYLKLTDVLSHDYSIVNIDGAYTCKDIFNEIPKIRNLIDEIKEDEDLDILLGLSSKKETVKDKDLSQIDYLEVEEPVEFDGFLCTDSIYEESDFVKVFPYEMGTITEMYYYINYIMDKGLYPVIFGNNSSFAHIAVSFKVPFLRPKLSSNVLNEVWNIERTIMNPNIRRF | not soluble
MATAFTHSGKFHADDVFSAALLLYLNPEITITRGNRVPEDFDGIVFDIGRGRYDHHQKDSRVRENGIAYAAFGLLWEELGSEILGEELAQKFDEAFVQPLDNNDNTGEKNELASLIGNFNPTWDAEGSNDEAFFQAVSVAGMILENKFDRYRGNERADKRVEEIYERHMQAFHDREKHSEDAKILILPEFVPCQKFLSETPVAFVIFPSNRGGYCIQPQKKEYSMNYKCSFPSEWLGLENEELQEVTGLKTAGFCHKGGFLMTTGELADAVQACKISMEQFREKPVIVSFGGDTEYDELLHQIPKLQAAEIIHIDIQPLPEVEIQGIYAEVSMEKQEWKARIKEQVKQILKYKPEAVFVGENLFVAYPIVHALRKKHIPVLVPAEKDGQKLLIRIPSGSLEHHHHHH | soluble
RCGAGEPWGNATNLGVPCLHWDEVPPFLERSPPASWAELRGQPHNFCRSPDGAGRPWCFYRNAQGKVDWGYCDCGQG | soluble
MHHHHHHSSGVDLGTENLYFQSMVKPAGPTVEQQGEMARSGGRMLATLEPEQRAEIIHHLADLLTDQRDEILLANKKDLEEAEGRLAAPLLKRLSLSTSKLNSLAIGLRQIAASSQDSVGRVLRRTRIAKNLELEQVTVPIGVLLVIFESRPDCLPQVAALAIASGNGLLLKGGKEAAHSNRILHLLTQEALSIHGVKEAVQLVNTREEVEDLCRLDKMIDLIIPRGSSQLVRDIQKAAKGIPVMGHSEGICHMYVDSEASVDKVTRLVRDSKCEYPAACNALETLLIHRDLLRTPLFDQIIDMLRVEQVKIHAGPKFASYLTFSPSEVKSLRTEYGDLELCIEVVDNVQDAIDHIHKYGSSHTDVIVTEDENTAEFFLQHVDSACVFWNASTRFSDGYRFGLGAEVGISTSRIHARGPVGLEGLLTTKWLLRGKDHVVSDFSEHGSLKYLHENLPIPQRNTN | soluble
MASSIDPLTRLHGILSSYLSEVLGVDRSVVERLLAPPPRKEYGDLGFPLMRFARSSNASADSIVESLRGKLWERGITWASPTLEAGYLNIVFDVEKLGDEVFRLLASGWRPSTARTSRPETIVVEHTSANPIHPLHLGHARNSSLGDALARLLEARGHRVNRRFYVDDVGRQAVVASLGFKLSGVTPRELASRMGVKVDHAVGWVYAVTHNALETVTARKRGDTSKVDEALSTLARLKERGDREVFDRILEAVGSLDDPEGLVSEMMRKYERGEEPEKSLIRGVVSAVLEGFRETLGRFGVDFDDWDWESDLLWSGLVNKIIEEARRSPFLTTHKDAIALDIPRIVREVLARDPEAASTIKLPRSLEIPPLILVRSDGTTLYTTRDLAYSVYKFRVTGADRVINVIGADQRLPQLQIRLALLGLGYRREALNMMHYDYEIVSLPGRRMSSRRGEYVTLDELLEMAKARSVREVESRNPGADRDWIESTAEKIAVGAVRFALVRPGRLKPITLDVERILDLKENTAPYLQYTYARASSILEKHGEIDYLKAHPASLEEGSRRELFVEALRFPLVSAKAADDLAPEDLASYLLRLADMFNSWYQKDSVIHEEWEGARHAKAALVLLVKSVIGEGLRLLGVEPLEKM | soluble
GMAEYEDRYWTSSDGLRLHFRAYEGDISRPPVLCLPGLTRNARDFEDLATRLAGDWRVLCPEMRGRGDSDYAKDPMTYQPMQYLQDLEALLAQEGIERFVAIGTSLGGLLTMLLAAANPARIAAAVLNDVGPEVSPEGLERIRGYVGQGRNFETWMHAARALQESSGDVYPDWDITQWLRYAKRIMVLGSSGRIAFDYDMKIAEPFEAPVGATPQVDMWPLFDALATRPLLVLRGETSDILSAQTAAKMASRPGVELVTLPRIGHAPTLDEPESIAAIGRLLERV | soluble
MGSDKIHHHHHHMQIVPLHSSHYPHIASVFHQAVRAAAGKGYTQAQCEAWSRGVRDRRYWRSRLGRSLVLVALNVDEVVGFIDCELEHPDKGYIGHLYVAPTHQGRGIGGKLLDALIRQAPALGIGSLTTDASLHSEPLFAAKGFSNVGRYFQQKSGQVLPGFAMTLPLPFYIDRMQGSDLASIARLFHEAVQGASEYYSEAERHAWSAALRDEATWQGKLAPSKVWVARKDSGIMGFINLLPKSIGEAEIDCLFTSPVLTRCGVATSLYWVLEQQARRDGVRRLSVEASYFARPFFQSRGFTELSRNEHPRHGQILVNFSMEKWLSRPEGG | not soluble
MGSDKIHHHHHHMINQVYRLVSERQFEVANVDESLTGDVVVVRPTHLSICAADQRYYTGSRGKEMLSKKLPMALIHEGVGEVVYDATKEFKPGAKVVMIPNTPFENDPVIAENYLRSSKFRSSGYDGLMQDYVFMRRDRVVALPDDINMKVAAFSELISVAVHAILRFEGKSNANRESFGVWGDGNLGFITSLLLKNWYPDSKVYIFGKTPYKLDFFSFVDGAYAIDDVPADLVIDQAFECAGGMGSQYAVSQIIDVIKPEGTISLLGVSEYPIEFNSRMVLEKGLTVYGSSRSGRVDFEKTVEFLSTNKRGVEYLQNLVGEVHTVHSIQDVIEAFEADLRSPWGKSVMEWKI | not soluble
MGSDKIHHHHHHMKISPLCPSCLLGRVYYEAKLVTDDEDLISQCVDESLKILAENYSSRPINAHLATRIHRRVYEILGVEDPYAEVKARANEVARQVLPLAKEIVEGSDDPFKTAVIVSIVGNNFDYGVQGHKVVEEEFRDFLKRKVQEGLKINDTERIKELSSGKVVYLTDNAGEIFFDTLLMKEIKRRCEKLTAVVRGRPIISDATIEDARLARVDKIADELLTNGKGAIGIIMDELPDETRKALEEADLIVAKGMANYECLSDGSLKPIAFLLTAKCEPVARDIGVNVGDMVAKVVE | soluble

Source: the DeepSol protein solubility set
